The values below come from EP4755449A2 (CHUGAI SEIYAKU KABUSHIKI KAISHA, dated 2026).

Test [1] concerns the target T1, human Fc gamma RIIb on MDCK cells (human, UniProt P31994 43-310).
T1 sequence (looked up): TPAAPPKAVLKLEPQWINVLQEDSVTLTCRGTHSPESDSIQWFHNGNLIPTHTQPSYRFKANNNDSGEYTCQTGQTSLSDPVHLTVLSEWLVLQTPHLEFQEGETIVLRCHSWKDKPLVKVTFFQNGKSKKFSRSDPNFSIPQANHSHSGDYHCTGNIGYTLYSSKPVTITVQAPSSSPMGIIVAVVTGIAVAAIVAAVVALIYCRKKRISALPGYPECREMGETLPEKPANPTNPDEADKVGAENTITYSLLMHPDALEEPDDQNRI
The experiment in a line: cell-based or functional assay.

Test [2] concerns the target T2, human Fc gamma RIIaH extracellular domain, His-tagged (human, UniProt P12318 34-217).
T2 construct: also called FcgRIIaH; human Fc gamma RIIa (type H)
T2 sequence: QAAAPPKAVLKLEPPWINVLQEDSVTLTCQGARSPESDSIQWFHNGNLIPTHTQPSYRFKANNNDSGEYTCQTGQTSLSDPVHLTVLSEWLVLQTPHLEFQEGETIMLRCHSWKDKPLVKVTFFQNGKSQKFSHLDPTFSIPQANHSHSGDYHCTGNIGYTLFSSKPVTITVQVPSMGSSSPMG
The experiment in a line: SPR 25C.

In test [3] the target is T3, human Fc gamma RIIb extracellular domain, His-tagged (human, UniProt P31994 43-217).
T3 construct: also called FcgRIIb
T3 sequence: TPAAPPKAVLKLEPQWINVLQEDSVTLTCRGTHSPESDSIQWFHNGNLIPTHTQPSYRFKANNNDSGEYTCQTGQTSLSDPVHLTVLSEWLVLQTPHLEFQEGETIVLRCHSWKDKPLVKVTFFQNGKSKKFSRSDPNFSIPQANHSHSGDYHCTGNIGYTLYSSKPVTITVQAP
The experiment in a line: SPR 25C.

Test [4] has as its target T4, cyno Fc gamma RIIIaS extracellular domain, His-tagged (cynomolgus monkey, UniProt Q8SPW2 21-206 at identity 1.00)).
T4 construct: also called cynoFcgRIIIaS
T4 chain: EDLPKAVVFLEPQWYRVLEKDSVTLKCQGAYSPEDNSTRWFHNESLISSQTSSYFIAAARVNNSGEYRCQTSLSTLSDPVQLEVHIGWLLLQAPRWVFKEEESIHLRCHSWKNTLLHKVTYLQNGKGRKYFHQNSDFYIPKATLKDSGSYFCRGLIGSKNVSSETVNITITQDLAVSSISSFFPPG
The experiment in a line: SPR 25C.

A further test has as its target T5, GST-hMSTN 101-200aa (human, UniProt A1C2U3 101-200 (Pongo pygmaeus entry)).
T5 construct: not shown: GST tag of pGEX4.1 vector
T5 sequence: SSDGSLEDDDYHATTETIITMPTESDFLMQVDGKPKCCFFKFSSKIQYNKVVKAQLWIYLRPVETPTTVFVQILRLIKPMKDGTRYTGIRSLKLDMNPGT
Nature of the test: Western blot. On the technique in general: Immunoblotting shows a protein as a band on a membrane.

A further test addresses T6, GST-hMSTN 121-220aa (human, UniProt A1C2U3 121-220 (Pongo pygmaeus entry)).
T6 construct: not shown: GST tag of pGEX4.1 vector
T6 sequence: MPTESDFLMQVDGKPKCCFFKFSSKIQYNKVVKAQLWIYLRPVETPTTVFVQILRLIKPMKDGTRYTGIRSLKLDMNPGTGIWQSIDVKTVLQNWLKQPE
The experiment in a line: Western blot.

For a further test, the target named is T7, GST-hMSTN 141-241aa (human, UniProt A1C2U3 141-241 (Pongo pygmaeus entry)).
T7 construct: not shown: GST tag of pGEX4.1 vector
T7 sequence: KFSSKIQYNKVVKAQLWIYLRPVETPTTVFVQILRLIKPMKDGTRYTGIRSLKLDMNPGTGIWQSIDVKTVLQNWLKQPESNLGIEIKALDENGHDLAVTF
Nature of the test: Western blot.

B1: MS103240H795-TT14/M103202L1045-SK1 (antibody, human IgG1, kappa)
heavy: QVQLVESGGGLVQPGGSLRLSCAVSGIDLSHDDISWVRQAPGKGLEWVSIISYAGSTYYASWAKGRLTISKDTSKNQVVLTMTNMDPVDTATYYCARGVPAYSHGGDLWGQGTLVTVSSASTKGPSVFPLAPSSKSTSGGTAALGCLVKDYFPEPVTVSWNSGALTSGVHTFPAVLQSSGLYSLSSVVTVPSSSLGTQTYICNVNHKPSNTKVDKKVEPKSCDKTHTCPPCPAPEYLGGDSVFLFPPKPKDVLMISRTPEVTCVVIDVSHEDPEVKFNWYVDGVEVHNAKTKPREEQYNSTYRVVSVLPVLHQDWLNGKEYKCKVSNKALPKPIEKTISKAKGQPREPQVYTLPPSREEMTKNQVSLTCLVKGFYPSDIAVEWESNGQPENNYKTTPPVLDSDGSFFLYSKLTVDKSRWQQGNVFSCSVMHEALHNHYTQKSLSLSP
light: DIVMTQSPATLSLSPGERATLSCTTSQSVYHENWLSWFQQKPGQPPKLLIYWASTLAYGVPSRFSGSGSGTDFTLTISSLQPEDAATYYCAGGYGGGRYAFGQGTKVEIKRTVAAPSVFIFPPSDEQLKSGTASVVCLLNNFYPREAKVQWKVDNALQSGNSQESVTEQDSKDSTYSLSSTLTLSKADYEKHKVYACEVTHQGLSSPVTKSFNRGEC
Regarding B1, the “antigen fluorescence intensity inside cells (uptake of antigen-antibody complex)” value in test [1] is 7.5 fold of SG1.

B2: MS103240H795-TT33/M103202L1045-SK1 (antibody, human IgG1, kappa)
heavy: QVQLVESGGGLVQPGGSLRLSCAVSGIDLSHDDISWVRQAPGKGLEWVSIISYAGSTYYASWAKGRLTISKDTSKNQVVLTMTNMDPVDTATYYCARGVPAYSHGGDLWGQGTLVTVSSASTKGPSVFPLAPSSKSTSGGTAALGCLVKDYFPEPVTVSWNSGALTSGVHTFPAVLQSSGLYSLSSVVTVPSSSLGTQTYICNVNHKPSNTKVDKKVEPKSCDKTHTCPPCPAPEYLGGDSVFLFPPKPKDVLMISRTPEVTCVVIDVSHEDPEVKFNWYVDGVEVHNAKTKPREEQYNSTYRVVSVLPVLHRDWLNGKEYKCKVSNKALPKPIEKTISKAKGQPREPQVYTLPPSREEMTKNQVSLTCLVKGFYPSDIAVEWESNGQPENNYKTTPPVLDSDGSFFLYSKLTVKKSRWQQGNVFSCSVMHEALHNHYTQKSLSLSP
light: DIVMTQSPATLSLSPGERATLSCTTSQSVYHENWLSWFQQKPGQPPKLLIYWASTLAYGVPSRFSGSGSGTDFTLTISSLQPEDAATYYCAGGYGGGRYAFGQGTKVEIKRTVAAPSVFIFPPSDEQLKSGTASVVCLLNNFYPREAKVQWKVDNALQSGNSQESVTEQDSKDSTYSLSSTLTLSKADYEKHKVYACEVTHQGLSSPVTKSFNRGEC
Consider B2, for which, in test [1], the “antigen antibody uptake into the cells” value is 36 fold of SG1.

B3: M103205H795-MY009/M103202L889-SK1 (antibody, human IgG1, kappa)
heavy: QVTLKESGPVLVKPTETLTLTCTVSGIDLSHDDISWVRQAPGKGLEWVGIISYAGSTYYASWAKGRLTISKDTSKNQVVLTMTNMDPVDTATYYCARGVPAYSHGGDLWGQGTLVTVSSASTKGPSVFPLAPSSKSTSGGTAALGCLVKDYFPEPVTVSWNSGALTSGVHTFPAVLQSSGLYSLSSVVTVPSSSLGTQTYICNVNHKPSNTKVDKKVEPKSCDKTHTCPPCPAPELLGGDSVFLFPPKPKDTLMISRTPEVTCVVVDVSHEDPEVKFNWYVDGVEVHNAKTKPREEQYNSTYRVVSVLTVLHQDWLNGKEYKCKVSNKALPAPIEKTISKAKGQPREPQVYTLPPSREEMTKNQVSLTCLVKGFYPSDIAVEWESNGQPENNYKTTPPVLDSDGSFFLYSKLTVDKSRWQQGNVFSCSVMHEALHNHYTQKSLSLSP
light: DIVMTQSPATLSLSPGERATLSCTSSQSVYHANWLSWFQQKPGQPPKLLIYWASTLAYGVPSRFSGSGSGTDFTLTISSLQPEDAATYYCAGGYGGGRYAFGQGTKVEIKRTVAAPSVFIFPPSDEQLKSGTASVVCLLNNFYPREAKVQWKVDNALQSGNSQESVTEQDSKDSTYSLSSTLTLSKADYEKHKVYACEVTHQGLSSPVTKSFNRGEC
notes: SG1 with P238D (EU); also called MS1032LO06-MY009; copies: 2 + 2
Regarding B3, the binding result in test [2], in test [3] and in test [4] was “binds” in each case.

B4: MST1032 (as used in Example 26) (antibody, V domains shown)
VH: QSLEESGGRLVTPGGSLTVTCRVSGIDLSSYDISWVRQAPGKGLEWIGIISYAGSTYYASWAKGRFTISKTSTTVDLKMTSLTTEDTATYFCARGVPAYSTGGDLWGPGTLVTVSS
VL: AQVLTQTASSVSAAVGGTVTINCQSSQSVYDNNWLSWFQQKPGQPPKLLIYWASTLASGVPSRFKGSGSGTQFTLTISDLECDDAATYYCAGGYGGGLYAFGGGTKVEIK
With B4, the binding result in the test with GST-hMSTN 101-200aa, in the test with GST-hMSTN 121-220aa and in the test with GST-hMSTN 141-241aa was “no binding” in each case.
